The target in this assay is T1, 重组人proAMH蛋白 (recombinant human proAMH protein) (human, UniProt P03971 25-560).
T1 construct: Expressed in Expi293 cells and purified on Ni-IMAC; nothing is said about the recombinant protein itself; also called His-tag重组人proAMH蛋白; 人proAMH标准品蛋白; not shown: His-tag; neither its length nor its terminus is stated
T1 sequence (looked up): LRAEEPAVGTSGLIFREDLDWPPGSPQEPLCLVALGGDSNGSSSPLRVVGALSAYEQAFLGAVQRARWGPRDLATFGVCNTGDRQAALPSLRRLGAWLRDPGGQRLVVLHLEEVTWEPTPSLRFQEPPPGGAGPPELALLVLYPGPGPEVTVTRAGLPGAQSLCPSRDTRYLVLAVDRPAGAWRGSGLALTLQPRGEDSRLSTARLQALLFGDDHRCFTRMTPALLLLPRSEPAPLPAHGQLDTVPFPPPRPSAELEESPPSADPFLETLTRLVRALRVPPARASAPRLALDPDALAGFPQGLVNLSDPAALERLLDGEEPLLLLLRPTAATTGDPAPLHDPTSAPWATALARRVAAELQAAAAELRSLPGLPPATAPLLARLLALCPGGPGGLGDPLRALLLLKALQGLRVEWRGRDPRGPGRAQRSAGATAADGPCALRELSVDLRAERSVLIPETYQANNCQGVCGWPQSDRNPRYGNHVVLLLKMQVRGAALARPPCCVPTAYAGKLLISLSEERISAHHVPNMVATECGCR
As to the kind of experiment: SPR, Biacore 3000; antibody immobilised on CM5 chip, proAMH at 100-3 nM as analyte. (SPR reads the build-up and loss of mass on a sensor chip optically.)

For orientation: Kd means the free concentration of one partner at which half of the binding sites on the other are occupied at equilibrium, for simple one-to-one binding. The koff is the rate constant with which the complex falls apart. Usually kon stands for the second-order rate constant of association.

B1: 单克隆抗体A (抗人proAMH蛋白兔单克隆抗体A) (antibody, V domains shown)
VH: QSVKESEGGLFKPTDTLTLTCTVSAFSISTYGVSWVRQAPGNGLEYIGWIAATGKVFYASWAKSRSTITRNTYENTVTLKMTSLTVADTATYFCAHVIWATQTFDFWGPGTLVTVSS
VL: DVVMTQTPASVSDPVGGTVTIKCQASQTITNFLSWFQQKPGQPPKLLIYNTMTLASGVPSRFKGSGSGTEYTLTISGVECADAATYYCQEGDNWDEVDAVFGGGTEVVVKG
notes: Recombinant rabbit monoclonal antibody made in 293F cells; kappa light chain, heavy constant region called IgG1 type; Copies '2' follows from the IgG format; also called monoclonal antibody A
Regarding B1, the Kd came out at 6.02 nM, the koff was 0.000117 s⁻¹ and the kon was 19500 M⁻¹ s⁻¹.

(Values after patent CN114891104A (YOURUI SAISI WUHAN BIOTECHNOLOGY CO LTD, dated 2022).)
